Measurements: patent US20220144957A1 (IMMUNECENT BIOTECHNOLOGY, published 2022)

T1: human IFNAR1, full length (IFNAR1-aa1-557) (human) (UniProt P17181)
T1 sequence (looked up): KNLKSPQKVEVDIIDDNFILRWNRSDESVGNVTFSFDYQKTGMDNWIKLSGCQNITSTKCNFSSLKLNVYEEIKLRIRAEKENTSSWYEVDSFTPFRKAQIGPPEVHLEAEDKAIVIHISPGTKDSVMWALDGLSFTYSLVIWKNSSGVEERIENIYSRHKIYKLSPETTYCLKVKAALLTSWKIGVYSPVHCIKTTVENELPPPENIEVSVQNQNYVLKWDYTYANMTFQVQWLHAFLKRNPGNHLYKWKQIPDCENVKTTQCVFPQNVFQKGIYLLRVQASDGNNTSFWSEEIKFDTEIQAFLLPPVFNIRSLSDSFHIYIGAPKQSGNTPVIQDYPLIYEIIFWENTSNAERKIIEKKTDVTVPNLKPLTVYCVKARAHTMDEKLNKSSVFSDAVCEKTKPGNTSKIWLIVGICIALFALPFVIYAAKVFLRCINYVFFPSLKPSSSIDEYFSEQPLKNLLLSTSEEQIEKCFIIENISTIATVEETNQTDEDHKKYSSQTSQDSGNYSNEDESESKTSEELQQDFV

T2: Human IFNAR1 SD1-SD4 (human, UniProt P17181 28-436, limits assumed)
T2 construct: domain: SD1-SD4; Antigen injected in the Biacore assay
T2 sequence (looked up): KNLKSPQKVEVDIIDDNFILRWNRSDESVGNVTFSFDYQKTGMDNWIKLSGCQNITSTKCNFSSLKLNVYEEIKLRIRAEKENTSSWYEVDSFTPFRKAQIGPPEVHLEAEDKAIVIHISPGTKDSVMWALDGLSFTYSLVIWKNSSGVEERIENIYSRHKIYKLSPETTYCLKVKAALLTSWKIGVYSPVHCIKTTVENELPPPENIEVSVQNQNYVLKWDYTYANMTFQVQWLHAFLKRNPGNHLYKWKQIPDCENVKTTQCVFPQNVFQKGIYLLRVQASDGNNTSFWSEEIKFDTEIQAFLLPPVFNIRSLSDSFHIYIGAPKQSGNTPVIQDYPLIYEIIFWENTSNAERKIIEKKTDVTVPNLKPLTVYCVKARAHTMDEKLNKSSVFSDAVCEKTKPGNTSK

T3: human IFNAR1 ECD (human, UniProt P17181 28-436)
T3 construct: extracellular domain; Coated on ELISA plates at 5 ug/ml
T3 sequence (looked up): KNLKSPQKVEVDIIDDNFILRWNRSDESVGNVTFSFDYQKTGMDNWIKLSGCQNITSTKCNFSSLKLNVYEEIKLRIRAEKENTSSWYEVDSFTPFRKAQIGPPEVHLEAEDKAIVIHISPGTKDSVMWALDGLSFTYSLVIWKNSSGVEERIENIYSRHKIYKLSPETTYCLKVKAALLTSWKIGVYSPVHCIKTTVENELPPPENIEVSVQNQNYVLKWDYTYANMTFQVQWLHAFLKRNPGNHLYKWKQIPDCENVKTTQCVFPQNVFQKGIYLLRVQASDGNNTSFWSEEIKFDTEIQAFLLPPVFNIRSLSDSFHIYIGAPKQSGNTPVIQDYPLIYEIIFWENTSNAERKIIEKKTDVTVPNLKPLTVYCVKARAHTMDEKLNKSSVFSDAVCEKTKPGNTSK

T4: human IFNAR1, full length (IFNAR1-aa1-557) (human, UniProt P17181 28-557)
T4 construct: whole, on cells; Overexpressed on HEK293T cells from pIRES2-EGFP-IFNAR1; also used here for the human IFNAR1 of the IFN-I reporter cells and the cells of the virus assays; also called IFNAR1-WT; wild type IFNAR1
T4 sequence (looked up): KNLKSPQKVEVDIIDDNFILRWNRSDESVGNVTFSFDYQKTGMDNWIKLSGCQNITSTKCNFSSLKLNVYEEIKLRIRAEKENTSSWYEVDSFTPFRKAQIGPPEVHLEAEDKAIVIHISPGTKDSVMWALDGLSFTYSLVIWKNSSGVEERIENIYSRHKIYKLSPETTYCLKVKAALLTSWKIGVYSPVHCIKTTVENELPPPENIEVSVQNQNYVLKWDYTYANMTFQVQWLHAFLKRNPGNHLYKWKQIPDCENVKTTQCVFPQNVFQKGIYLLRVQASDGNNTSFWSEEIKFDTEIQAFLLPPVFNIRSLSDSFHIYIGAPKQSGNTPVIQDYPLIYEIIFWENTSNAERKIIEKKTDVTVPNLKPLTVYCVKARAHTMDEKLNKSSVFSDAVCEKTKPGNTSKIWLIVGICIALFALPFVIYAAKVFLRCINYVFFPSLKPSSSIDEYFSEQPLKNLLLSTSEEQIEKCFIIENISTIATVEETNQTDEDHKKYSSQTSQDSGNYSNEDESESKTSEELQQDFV


Tests used:
[1] = target: T1, human IFNAR1, full length (IFNAR1-aa1-557) (human); test: cell-based or functional assay
Human IFNAR1 SD1-SD4 = target: T2, Human IFNAR1 SD1-SD4; test: SPR (Biacore 8K), antibody captured on anti-human IgG Fc, antigen injected
Method: Preparation of a CM5 chip surface: Using HBS-EP+ (10 mM HEPES, 150 mM NaCl, 3 mM EDTA, 0.05% surfactant P20) as running buffer, both channel 1&2 of a CM5 sensor chip (GE Healthcare, BR-1000-30) were activated with a fresh mixture of 50 mM NHS and 200 mM EDC (1:1). Anti-human IgG Fc, 20 μg/ml in 10 mM NaOAc buffer (pH 5.0), was then passed over the activated surface of the two flow cells in each channel at 10 l/min (target around 10000 RU). […] Low flow rate was maintained over 2 hours for the equilibrium of the immobilized protein.
Measurement of binding kinetics: Each antibody was captured in flow cell FC2 in channel 1&2 around 250 RU respectively, using FC1 as the reference cell, followed by injection of antigen samples at varying concentrations. The signals with captured antibody subtracted from that without captured antibody were calculated with Biacore 8K evaluation software. The running buffer was HBS-EP+(10 mM HEPES, 150 mM NaCl, 3 mM EDTA, 0.05% surfactant P20).

human IFNAR1 ECD = target: T3, human IFNAR1 ECD; test: ELISA, plate coated with human IFNAR1 ECD, anti-human IgG Fc-peroxidase, OD450
Method: 96-well plates were coated with 100ul 5 ug/ml human IFNAR1 ECD in 1×PBS and incubate at 4° C. overnight. The plates were then washed with PBST (1×PBS+0.05% Tween20) for 3 times and blocked with the blocking buffer (1×PBS+0.05% Tween20+1% BSA) at RT for 2 hr. […] The plates were washed with PBST for 3 times, followed by addition of antibody (Anti-Human IgG (Fc specific)-Peroxidase antibody produced in goat, ZSGB-BIO) at 100ul/well and then incubated at RT for 1 hr. The plates were washed with PBST 5 times and then 100ul/well TMB was added and after 15 minutes, the plates were quenched with 50ul/well 2N H₂SO₄. The plates were read with Molecular device spectra max at 450 nm.

[2] = target: T4, human IFNAR1, full length …; test: flow cytometry on cells expressing human IFNAR1, MFI of PE

| percentage of GFP positive cells in IFN-I reporter cells, 50 pg/ml IFNβ against Mock control [1] [fold] | percentage of GFP positive cells in IFN-I reporter cells, 50 pg/ml IFNω against Mock control [1] [fold] | Kd (Human IFNAR1 SD1-SD4) [nM] | koff (Human IFNAR1 SD1-SD4) [s⁻¹] | kon (Human IFNAR1 SD1-SD4) [M⁻¹ s⁻¹] | EC50 (human IFNAR1 ECD) [ng/mL] | Top (human IFNAR1 ECD) [OD450] | EC50 (read off the curve) [2] [µg/mL] | Molecule |
| --- | --- | --- | --- | --- | --- | --- | --- | --- |
| > 5 |  |  |  |  |  |  |  | Human IFNβ (from UniProt P01574 22-187) (ligand) |
|  | > 5 |  |  |  |  |  |  | Human IFNω (from UniProt P05000 24-195) (ligand) |
|  |  | 0.765 | 0.000349 | 456000 | 4.65 | 3.27 | ~0.04 | 7G4 Chimeric (antibody, V domains shown) VH: QVQLQQPGAELVKPGAPVKLSCKASGYTFTSYWMNWVRQRPGRGLEWIGKIDPSDSETHFNQKFRDKATLTVDKSSTTAYIQLSSLTSEDSAVYYCARGGRISFDYDAALDYWGQGTSVTVSS VL: DILMTQSSSSFSVSLGDRVTITCKSSEVIYNRLAWFQQKPGNAPRLLISGATTLESGFPSRFSGSGSGKDYTLSITSLQIEDVSTYYCQQYWNKPFTFGSGTKLEVK |
|  |  | 0.461 | 0.000214 | 465000 | 2.27 | 3.1 |  | Hu4-14 (antibody, V domains shown, Humanized 7G4 variant) VH: QVQLVQSGAEVKKPGASVKVSCKASGYTFTSYWMNWVRQAPGQGLEWMGKIDPSDSETHFNQKFRDRVTLTVDKSTSTVYMELSSLRSEDTAVYYCARGGRISFDYDAALDYWGQGTLVTVSS VL: DIQMTQSPSSLSASVGDRVTITCKSSEVIYNRLAWYQQKPGNAPKLLISGATTLESGVPSRFSGSGSGKDYTLTISSLQPEDFATYYCQQYWNKPFTFGQGTKLEIK |
|  |  | 0.442 | 0.000209 | 472000 | 2.84 | 3.46 |  | Hu4-15 (antibody, V domains shown, Humanized 7G4 variant) VH: QVQLVQSGAEVKKPGASVKVSCKASGYTFTSYWMNWVRQAPGQGLEWIGKIDPSDSETHFNQKFRDRVTLTVDKSTSTVYMELSSLRSEDTAVYYCARGGRISFDYDAALDYWGQGTLVTVSS VL: DIQMTQSPSSLSASVGDRVTITCKSSEVIYNRLAWYQQKPGNAPKLLISGATTLESGVPSRFSGSGSGKDYTLTISSLQPEDFATYYCQQYWNKPFTFGQGTKLEIK |
|  |  | 0.671 | 0.000301 | 449000 | 3.27 | 3.4 | ~0.04 | Hu4-13 (antibody, V domains shown, Humanized 7G4 variant) VH: QVQLVQSGAEVKKPGASVKVSCKASGYTFTSYWMNWVRQAPGQGLEWMGKIDPSDSETHFNQKFRDRVTMTRDTSTSTVYMELSSLRSEDTAVYYCARGGRISFDYDAALDYWGQGTLVTVSS VL: DIQMTQSPSSLSASVGDRVTITCKSSEVIYNRLAWYQQKPGNAPKLLISGATTLESGVPSRFSGSGSGKDYTLTISSLQPEDFATYYCQQYWNKPFTFGQGTKLEIK |
